Assay [1] addresses BG505.MD39 native-like trimer (stabilized HIV Env gp140 ectodomain), sequence optimized, recombinant (HIV-1 (isolate BG505)). Briefly: SEC.
The target is the same in assay [2]. Briefly: native gel or EMSA. A general note: A gel shift assay detects complexes by their altered migration in electrophoresis.
Assay [3] has the same target. Nature of the assay: negative-stain EM.
The target is the same in assay [4]. Briefly: SEC-MALS. Background: Size exclusion chromatography separates by hydrodynamic size, large species first.
In assay [5] the target is in vivo produced BG505.MD39 (DNA-encoded, pMD39_opt, in mouse muscle) (HIV-1 (isolate BG505)). Briefly: native gel or EMSA.

Turning to “BG505.MD39 native-like trimer (stabilized HIV Env gp140 ectodomain), sequence optimized, recombinant (complex)”, the stoichiometry N in assay [1], in assay [2], in assay [3] and in assay [4] was 3 throughout.

Consider “in vivo produced BG505.MD39 (DNA-encoded, pMD39_opt, in mouse muscle) (complex)”, for which the stoichiometry N (in general, the number of molecules, sites or subunits per partner or assembly) in assay [5] amounted to 3.

Source of the values: publication PMC8816947.
